Tested on: NC(=O)C[C@H](N)C(=O)O
Test: Nessler ammonia assay, OD436; Lineweaver-Burk
Type: biochemical, Mycobacterium gordonae
Conditions: 50 mM PBS pH 8.0, 37 °C, 2 min, 1-20 mM substrate

Question: Which Km does the source give for “GmASNase (Mycobacterium gordonae L-asparaginase) (Mycobacterium gordonae)” here?
Answer: 6.025 mM

Question: And the kcat?
Answer: 11,864.71 min^-1
